Measured values: patent US10604566B2, “Antagonists of IL-17C for the treatment and/or prevention of atopic dermatitis” (MORPHOSYS AG, priority 2015, dated 2020)

Experiments:
[1] = target: T1, human IL-17C (Homo sapiens, UniProt Q9P0M4); experiment: Binding to human IL-17C and inhibition of IL-17C binding to IL-17RE
T1 sequence (Q9P0M4 19-197): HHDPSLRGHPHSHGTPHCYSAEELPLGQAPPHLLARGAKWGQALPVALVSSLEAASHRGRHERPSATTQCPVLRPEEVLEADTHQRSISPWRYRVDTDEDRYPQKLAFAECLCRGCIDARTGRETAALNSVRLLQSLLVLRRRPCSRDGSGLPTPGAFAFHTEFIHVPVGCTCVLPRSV
Procedure: (§1) The following working examples were performed using the antibodies MOR12743 and MOR22420 (see Table 1). […] Therefore both antibodies are antagonists of IL-17C in the sense of the present disclosure. MOR12743 is already disclosed and characterized in WO 2013/057241 (U.S. Ser. No. 14/351,162), which is incorporated by reference in its entirety.

[2] = test system: MC903-treated mice; experiment: MC903 mouse model of atopic dermatitis; assay type: in vivo, BALB/c mice; conditions: 3x10 mg/kg i.p.
Source text: The pro-inflammatory function of IL-17C in atopic dermatitis was examined in a non-infectious cutaneous inflammation mouse model of atopic dermatitis where topical application of the low-calcemic vitamin D3 analogue MC903 (calcipotriol) induces atopic dermatitis like skin lesion characterized by a red and scaly skin, accompanied by an epidermal hyperplasia and dermal infiltration of various cell types as well as an increase of Th2 cytokine in skin and elevated serum IgE (Li et al., 2006; Li et al, 2009). The MC903 mouse model is a widely accepted and predictable model to mimic the Th2 driven symptoms of atopic dermatitis in vivo.
BALB/c mice (female, 8-week old) were obtained from Janvier Labs (France). Mice were kept on a 12 hours light/dark cycle (0700-1900). Temperature was maintained at 22° C., and food and water were provided ad libitum.
In order to induce an AD-like response, 2 nmol MC903 (Tocris, dissolved in ethanol) was topical applied in a volume of 20 μL on both ears of mice for 5 consecutive days. A non-disease control group received the same quantity of ethanol (EtOH).
The severity of skin inflammation (erythema and thickening) was observed daily. Ear thickness was measured with an electronic caliper (Mitutoyo). Inflammation was further assessed using an in vivo imaging technique. To that end, Prosense 680 probe (1.6 nmol, Perkin Elmer) was administered by intraperitoneal route 24 hours before imaging. Imaging was performed with the Bruker In-vivo Xtreme Imaging System. Images were captured by a deeply cooled 4MP CCD camera (f-stop 1.1, binning 2×2, 5 sec acquisition time, Ex 630 nm, Em 700 nm). For anatomical co-registration, a reflectance image was taken (f-stop 2.8, 0.175 sec acquisition time). All images were taken with a 190×190 field of view and images were analysed using Molecular Imaging Software version 7.1 (Bruker Biospin, Billerica, Mass., USA). For each group, the mean values and standard error of mean (sem) was calculated using for each mouse the mean value of left and right ear.
At sacrifice, samples form ear skin were collected and fixed in 4% formaldehyde before embedding in paraffin. 4 μm-thick slices were stained with hematoxylin and eosin (H&E stain) for histomorphometric evaluation of epidermal thickness by image analysis with Sisn'Com software (France). Five fields per ear (high power field ×20) covering the whole ear from top to bottom were measured, and the 5 values were averaged per ear and per mice (left/right ear). An additional set of tissue slices were prepared for IHC staining of IL-17C using the anti-IL-17C biotinylated MOR12743 antibody (and biotinylated MOR03207 isotype negative control antibody). Processing and staining was essentially done as described above.
Ear skin samples were also taken for analysis of cytokine expression using qPCR or ELISA. […] Ear skin sam pies for quantification at protein level were immediately snap frozen in liquid N2 and stored at −80° C. […] 5 μL of 10-fold diluted cDNA was used in real-time quantitative PCR reactions using SYBR Green technology with gene-specific primers from Qiagen. qPCR was performed on the ViiA™ 7 Real-Time PCR System (Applied Biosystems). Gene expression was normalized to the expression of 3 different house-keeping genes (cyclophilin, b-actin and GAPDH) and expressed as relative mRNA level of specific gene expression as obtained using the 2^−ΔCt method, with ΔCt=Ctgene−Geomean Ct-value (housekeeping genes). […]

[3] = target: T2, murine IL-17C (Mus musculus, UniProt Q8K4C5); experiment: Binding to murine IL-17C and inhibition of IL-17C binding to IL-17RE
T2 sequence (Q8K4C5 17-194): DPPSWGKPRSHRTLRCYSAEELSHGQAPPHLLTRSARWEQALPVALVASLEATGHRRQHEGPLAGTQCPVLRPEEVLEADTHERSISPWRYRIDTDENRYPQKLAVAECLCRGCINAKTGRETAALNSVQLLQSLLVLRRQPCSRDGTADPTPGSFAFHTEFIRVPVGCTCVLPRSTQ
Procedure: as §1

B1: MOR22420: anti-IL-17C antibody, binds human IL-17C; VH SEQ ID No.: 21, VL SEQ ID No.: 20 (antibody, V domains shown)
VH: QVQLVQSGAEVKKPGSSVKVSCKASGGTFSSYAISWVRQAPGQGLEWMGTIDPFFGKTYYAQKFQGRVTITADESTSTAYMELSSLRSEDTAVYYCARDVSSISYYFHEYYSDRFDYWGQGTLVTVSS
VL: DIALTQPASVSGSPGQSITISCTGTSSDVGGYEYVNWYQQHPGKAPKLMIYDDSYRPSGVSNRFSGSKSGNTASLTISGLQAEDEADYYCQSTDPHSTVVFGGGTKLTVLGQ
modifications: mab Library
inhibition of binding of IL-17C to its receptor IL-17RE [1]: inhibit binding of IL-17C to its receptor IL-17RE | specific binding to IL-17C [1]: specifically bind

B2: MOR12743: anti-IL-17C antibody, binds murine IL-17C; VH SEQ ID No.: 11, VL SEQ ID No.: 10; disclosed in WO 2013/057241 (antibody, V domains shown)
VH: QVQLVQSGAEVKKPGASVKVSCKASGYTFTSNFIHWVRQAPGQGLEWMGWISPYNGDTNYAQKFQGRVTMTRDTSISTAYMELSRLRSEDTAVYYCARESVYYGSDYGYNGMDIWGQGTLVTVSS
VL: DIELTQPPSVSVSPGQTASITCSGDNLGEEYVSWYQQKPGQAPVLVIYDDTKRPSGIPERFSGSNSGNTATLTISGTQAEDEADYYCASWDLWSVEVFGGGTKLTVLGQ
modifications: mab Library
ear inflammation as assessed by in vivo imaging ([2]; day 5, Prosense 680 probe, FIG. 6): significantly reduced | ear redness ([2]; day 8, vs MC903+MOR03207 isotype control): less red | ear swelling (ear thickness) ([2]; day 8, vs MC903+MOR03207 isotype control, FIG. 5): significantly less swollen | epidermal hyperplasia (epidermal thickness) ([2]; histology H&E at sacrifice, FIG. 7): partially reduced | TSLP expression in ears ([2]; protein, ELISA, FIG. 8): significantly inhibited | inhibition of binding of IL-17C to its receptor IL-17RE [3]: inhibit binding of IL-17C to its receptor IL-17RE | specific binding to IL-17C [3]: specifically bind
